Data as given in publication PMC4692422.

B1: Flag-tagged WT STAT5 (mouse STAT5a) [mouse] / DUSP4-PD (phosphatase-dead mutant DUSP4, [mouse] (parent)
chain 1: MAGWIQAQQLQGDALRQMQVLYGQHFPIEVRHYLAQWIESQPWDAIDLDNPQDRGQATQLLEGLVQELQKKAEHQVGEDGFLLKIKLGHYATQLQNTYDRCPMELVRCIRHILYNEQRLVREANNCSSPAGVLVDAMSQKHLQINQRFEELRLITQDTENELKKLQQTQEYFIIQYQESLRIQAQFAQLGQLNPQERMSRETALQQKQVSLETWLQREAQTLQQYRVELAEKHQKTLQLLRKQQTIILDDELIQWKRRQQLAGNGGPPEGSLDVLQSWCEKLAEIIWQNRQQIRRAEHLCQQLPIPGPVEEMLAEVNATITDIISALVTSTFIIEKQPPQVLKTQTKFAATVRLLVGGKLNVHMNPPQVKATIISEQQAKSLLKNENTRNECSGEILNNCCVMEYHQATGTLSAHFRNMSLKRIKRADRRGAESVTEEKFTVLFESQFSVGSNELVFQVKTLSLPVVVIVHGSQDHNATATVLWDNAFAEPGRVPFAVPDKVLWPQLCEALNMKFKAEVQSNRGLTKENLVFLAQKLFNISSNHLEDYNSMSVSWSQFNRENLPGWNYTFWQWFDGVMEVLKKHHKPHWNDGAILGFVNKQQAHDLLINKPDGTFLLRFSDSEIGGITIAWKFDSPDRNLWNLKPFTTRDFSIRSLADRLGDLNYLIYVFPDRPKDEVFAKYYTPVLAKAVDGYVKPQIKQVVPEFVNASTDAGASATYMDQAPSPVVCPQPHYNMYPPNPDPVLDQDGEFDLDESMDVARHVEELLRRPMDSLDARLSPPAGLFTSARSSLS
chain 2: MVTMEELREMDCSVLKRLMNRDENGGGGSAGGNGSGSHGALGLLSGGKCLLLDCRPFLAHSAGYIRGSVNVRCNTIVRRRAKGSVSLEQILPAEEEVRARLRSGLYSAVIVYDERSPRAESLREDSTVSLVVQALRRNAERTDICLLKGGYERFSSEYPEFCSKTKALAAIPPPVPPSTNESLDLGCSSCGTPLHDQGGPVEILPFLYLGSAYHAARRDMLDALGITALLNVSSDCPNHFEGHYQYKCIPVEDNHKADISSWFMEAIEYIDAVKDCRGRVLVHSQAGISRSATICLAYLMMKKRVRLEEAFEFVKQRRSIISPNFSFMGQLLQFESQVLTTSCAAEAASPSGPLRERGKATPTPTSQFVFSFPVSVGVHAAPSNLPYLHSPITTSPSC

Variants of: B1
Assay: co-IP (anti-Flag IP, IB DUSP4) with band intensity quantification
Details: HEK-293T cells co-transfected for 24 hr, parent: 3.76e+04

Row | Variant | response (band intensity (arbitrary units))
1 | chain 1 Y694D | 48300
2 | chain 1 Y694F | 43700
3 | chain 1 Y694E | 44800
